Consider 1 substance from article PMC8646365.

The test deals with cancer-testis antigen Ny-ESO-1 peptide on HLA-A*02:01 (human). Nature of the test: NFAT-luciferase, TCR-KO CD8+ Jurkat.

Turning to 1G4_a95LY TCR, the EC50 of peptide was found to be 50 pM.
